Results published in publication PMC10514974, “The NAC transcription factor MdNAC4 positively regulates nitrogen deficiency-induced leaf senescence by enhancing ABA biosynthesis in apple”.

T1: MdNAC4-GST (apple, UniProt B6DXL4 1-350)
T1 sequence: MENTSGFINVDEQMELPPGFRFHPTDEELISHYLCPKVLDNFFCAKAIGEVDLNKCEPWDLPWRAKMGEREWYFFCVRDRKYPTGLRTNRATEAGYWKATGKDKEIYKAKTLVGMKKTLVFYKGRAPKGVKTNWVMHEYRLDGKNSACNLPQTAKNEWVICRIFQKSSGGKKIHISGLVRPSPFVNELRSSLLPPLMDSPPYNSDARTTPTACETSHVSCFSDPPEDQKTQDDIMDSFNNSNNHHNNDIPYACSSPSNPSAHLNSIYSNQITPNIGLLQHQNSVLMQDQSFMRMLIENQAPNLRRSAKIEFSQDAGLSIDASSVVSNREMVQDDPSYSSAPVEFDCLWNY


Experiments:
Conditions in all cases: protein: recombinant; tags: GST (pGEX4T-1); label: biotin; blunt
MdNAC4-GST [1] = molecular target: T1, MdNAC4-GST; experiment: EMSA; LightShift binding buffer, 30 min at 24 °C in the dark; biotin-labeled probes; salt and pH not stated
MdNAC4-GST [2] = molecular target: T1, MdNAC4-GST; experiment: EMSA; unlabeled competitor 5x, 50x, 100x abolished binding; LightShift binding buffer, 30 min at 24 °C in the dark; biotin-labeled probes; salt and pH not stated
MdNAC4-GST [3] = molecular target: T1, MdNAC4-GST; experiment: EMSA; unlabeled competitor 5x, 50x, 100x progressively abolished binding; LightShift binding buffer, 30 min at 24 °C in the dark; biotin-labeled probes; salt and pH not stated

| Binder | binding result (MdNAC4-GST [1]) | also measured |
| --- | --- | --- |
| MdNCED2 mutant probe (dsDNA) DNA 1: TAAATCCACGACGGGGTCTCTCATG DNA 2: CATGAGAGACCCCGTCGTGGATTTA | no binding | – |
| MdSAG39 mutant probe (dsDNA) DNA 1: TTTTGTAAGGGACGGACCACGCTGA DNA 2: TCAGCGTGGTCCGTCCCTTACAAAA | no binding | – |
| MdSAG39 promoter probe P2 (ABRE) (dsDNA) DNA 1: TTTTGTAAGGCACGTACCACGCTGA DNA 2: TCAGCGTGGTACGTGCCTTACAAAA | – | binding result (MdNAC4-GST [2]): binds |
| MdNCED2 promoter probe P4 (ABRE) (dsDNA) DNA 1: TAAATCCACCACGTGGTCTCTCATG DNA 2: CATGAGAGACCACGTGGTGGATTTA | – | binding result (MdNAC4-GST [3]): binds |
